Assays:
[1] = biological target: SARS-CoV-2 Spike Glycoprotein S1 (subunit 1) (SARS-CoV-2) (UniProt P0DTC2); assay: epitope binning; competitor 2-5
[2] = biological target: SARS-CoV-2 Spike Glycoprotein S1 (subunit 1) (SARS-CoV-2) (UniProt P0DTC2); assay: epitope binning; competitor 1-35
[3] = biological target: SARS-CoV-2 Spike Glycoprotein S1 (subunit 1) (SARS-CoV-2) (UniProt P0DTC2); assay: epitope binning; competitor Abcam CR3022
[4] = biological target: SARS-CoV-2 Spike Glycoprotein S1 (subunit 1) (SARS-CoV-2) (UniProt P0DTC2); assay: epitope binning; competitor 2-6
[5] = biological target: SARS-CoV-2 Spike Glycoprotein S1 (subunit 1) (SARS-CoV-2) (UniProt P0DTC2); assay: epitope binning; competitor 2-8
[6] = biological target: SARS-CoV-2 Spike Glycoprotein S1 (subunit 1) (SARS-CoV-2) (UniProt P0DTC2); assay: epitope binning; competitor 1-32
[7] = biological target: SARS-CoV-2 Spike Glycoprotein S1 (subunit 1) (SARS-CoV-2) (UniProt P0DTC2); assay: epitope binning; competitor 2-11
[8] = biological target: SARS-CoV-2 Spike Glycoprotein S1 (subunit 1) (SARS-CoV-2) (UniProt P0DTC2); assay: epitope binning; competitor 1-16
[9] = biological target: SARS-CoV-2 Spike Glycoprotein S1 (subunit 1) (SARS-CoV-2) (UniProt P0DTC2); assay: epitope binning; competitor Acro mAb
[10] = biological target: SARS-CoV-2 Spike Glycoprotein S1 (subunit 1) (SARS-CoV-2) (UniProt P0DTC2); assay: epitope binning; competitor 2-2

In the case of Abcam CR3022 (antibody), the epitope binning score [1] is reported as 0, the epitope binning score [2] is reported as 2 and the epitope binning score [3] is reported as 0. For the same substance, the epitope binning score [4] was 2, the epitope binning score [5] was 0 and the epitope binning score [6] was 1. For the same substance, the epitope binning score [7] was 1, the epitope binning score [8] was 2 and the epitope binning score [9] was 2. For the same substance, the epitope binning score [10] was 0.

From patent US20210395344A1
